The text below walks through data of patent publication US9605283B2, “Microorganism modified for the production of 1,3-propanediol” (INSTITUT NATIONAL DES SCIENCES APPLIQUÉES, priority 2012, dated 2017).

Where a chain is given by its changes, count along the chain named. Numbers in names are those of the source.

Format in all cases: biochemical
Series [1] in a line: OHB decarboxylase activity (coupled to YqhD, NADPH). The following applies: for OHB decarboxylase activity (in words): wild-type enzymes. As to the method: OHB decarboxylase activity was assayed by coupling the decarboxylase activity to the NADPH-dependent reduction of the released 3-hydroxypropanal by purified aldehyde reductase, YqhD, from E. coli. The decarboxylation of pyruvate was coupled to the NADH-dependent reduction of acetaldehyde catalysed by yeast alcohol dehydrogenase. Branched-chain alpha-ketoacid decarboxylase activity was measured on 4-methyl-2-oxovaleric acid by coupling to the NADH-dependent reduction of 3-methylbutanal catalysed by horse liver alcohol dehydrogenase. […] Reactions were started by adding 20 mM 2-oxo-4-hydroxybutyrate (OHB), 10 mM 4-methyl-2-oxovaleric acid (MOV), or 5 mM pyruvate.

A short description of series [2]: Pyruvate decarboxylase activity (coupled to yeast alcohol dehydrogenase). As to the method: OHB decarboxylase activity was assayed by coupling the decarboxylase activity to the NADPH-dependent reduction of the released 3-hydroxypropanal by purified aldehyde reductase, YqhD, from E. coli. The decarboxylation of pyruvate was coupled to the NADH-dependent reduction of acetaldehyde catalysed by yeast alcohol dehydrogenase. Branched-chain alpha-ketoacid decarboxylase activity was measured on 4-methyl-2-oxovaleric acid by coupling to the NADH-dependent reduction of 3-methylbutanal catalysed by horse liver alcohol dehydrogenase. […]

Series [3] in a line: Malate dehydrogenase activity (natural substrate). The following applies: for Max. specific activity, malate: activity measured at 50 mM malate.
Series [4] in a line: DHB dehydrogenase activity of cytosolic enzymes (DHB-dependent reduction of NAD+).
Experimental: Activity of the cytosolic DHB dehydrogenases (Ec-Mdh, Bs-Mdh, Ll-LdhA) was assayed by following the DHB-dependent reduction of NAD^+.
The reaction mixture contained 60 mM Hepes (pH 8), 50 mM potassium chloride, 5 mM MgCl2, 10 mM NAD, (optionally, 5 mM fructose-1,6-bisphosphate (F16bP)) (all products from Sigma), and appropriate amounts of purified enzyme or cell extract. Reactions were started by adding 50 mM (L)-2,4-dihydroxybutyrate (Rhodia).
All enzymatic assays were carried out at 37° C. in 96-well flat bottomed microtiter plates in a final volume of 250 μL. The reactions were followed by the characteristic absorption of NADH at 340 nm (εNADH=6.22 mM^−1 cm^−1) or the absorbtion of DCIP at 655 nm (εDCIP=5.9 mM^−1 cm^−1) in a microplate reader (BioRad 680XR).
Where [5] appears, read: when not saturated, activity estimated at 20 mM substrate, Table 8.
Setting [6] is: natural substrate pyruvate, Table 8.
Where [7] appears, read: activity measured at 50 mM DHB, Table 4.

B1: Zm-Pdc: pyruvate decarboxylase of Zymomonas mobilis, SEQ ID No. 128 (protein, listed as Zymomonas mobilis)
chain: MSYTVGTYLAERLVQIGLKHHFAVAGDYNLVLLDNLLLNKNMEQVYCCNELNCGFSAEGYARAKGAAAAVVTYSVGALSAFDAIGGAYAENLPVILISGAPNNNDHAAGHVLHHALGKTDYHYQLEMAKNITAAAEAIYTPEEAPAKIDHVIKTALREKKPVYLEIACNIASMPCAAPGPASALFNDEASDEASLNAAVEETLKFIANRDKVAVLVGSKLRAAGAEEAAVKFADALGGAVATMAAAKSFFPEENPHYIGTSWGEVSYPGVEKTMKEADAVIALAPVFNDYSTTGWTDIPDPKKLVLAEPRSVVVNGIRFPSVHLKDYLTRLAQKVSKKTGALDFFKSLNAGELKKAAPADPSAPLVNAEIARQVEALLTPNTTVIAETGDSWFNAQRMKLPNGARVEYEMQWGHIGWSVPAAFGYAVGAPERRNILMVGDGSFQLTAQEVAQMVRLKLPVIIFLINNYGYTIEVMIHDGPYNNIKNWDYAGLMEVFNGNGGYDSGAGKGLKAKTGGELAEAIKVALANTDGPTLIECFIGREDCTEELVKWGKRVAAANSRKPVNKLL
With B1, in series [1] (setting [5]), the “Max. specific activity, OHB” value is 0.052 µmol/mg/min. Also, the “OHB decarboxylase activity (in words)” value in series [1] was “significant OHB decarboxylase activity”. In addition, the “Max. specific activity, Natural substrate” value in series [2] (setting [6]) amounted to 65 µmol/mg/min.

B2: Zm-Pdc W392Q: Z. mobilis pyruvate decarboxylase mutant W392Q, SEQ ID No. 190 (protein, listed as Zymomonas mobilis)
chain: B1 chain with W392Q
With B2, in series [1] (activity measured at 20 mM OHB, Table 10), the “Max. specific activity, OHB” value came to 0.19 µmol/mg/min. Besides, the “Effect of mutation on activity and/or specificity for OHB (in words)” value in series [1] (versus wild-type enzyme) was “increased activity and/or specificity for OHB”. In addition, the “Max. specific activity, Natural substrate” value in series [2] (activity measured at 50 mM pyruvate (Pdc mutants), Table 10) came out at 1.39 µmol/mg/min.

B3: Sc-Pdc1: pyruvate decarboxylase of Saccharomyces cerevisiae, SEQ ID No. 208 (protein, listed as Saccharomyces cerevisiae)
chain: MSEITLGKYLFERLKQVNVNTVFGLPGDFNLSLLDKIYEVEGMRWAGNANELNAAYAADGYARIKGMSCIITTFGVGELSALNGIAGSYAEHVGVLHVVGVPSISAQAKQLLLHHTLGNGDFTVFHRMSANISETTAMITDIATAPAEIDRCIRTTYVTQRPVYLGLPANLVDLNVPAKLLQTPIDMSLKPNDAESEKEVIDTILALVKDAKNPVILADACCSRHDVKAETKKLIDLTQFPAFVTPMGKGSIDEQHPRYGGVYVGTLSKPEVKEAVESADLILSVGALLSDFNTGSFSYSYKTKNIVEFHSDHMKIRNATFPGVQMKFVLQKLLTTIADAAKGYKPVAVPARTPANAAVPASTPLKQEWMWNQLGNFLQEGDVVIAETGTSAFGINQTTFPNNTYGISQVLWGSIGFTTGATLGAAFAAEEIDPKKRVILFIGDGSLQLTVQEISTMIRWGLKPYLFVLNNDGYTIEKLIHGPKAQYNEIQGWDHLSLLPTFGAKDYETHRVATTGEWDKLTQDKSFNDNSKIRMIEIMLPVFDAPQNLVEQAKLTAATNAKQ
In the case of B3, the “Max. specific activity, OHB” value in series [1] (setting [5]) is 0.055 µmol/mg/min. In series [1], the “OHB decarboxylase activity (in words)” value was “significant OHB decarboxylase activity”. Moreover, the “Max. specific activity, Natural substrate” value in series [2] (setting [6]) was 1.3 µmol/mg/min.

B4: Ec-Mdh: (L)-malate dehydrogenase of Escherichia coli, wild-type, SEQ ID No. 124 (protein, listed as Escherichia coli)
chain: MKVAVLGAAGGIGQALALLLKTQLPSGSELSLYDIAPVTPGVAVDLSHIPTAVKIKGFSGEDATPALEGADVVLISAGVARKPGMDRSDLFNVNAGIVKNLVQQVAKTCPKACIGIITNPVNTTVAIAAEVLKKAGVYDKNKLFGVTTLDIIRSNTFVAELKGKQPGEVEVPVIGGHSGVTILPLLSQVPGVSFTEQEVADLTKRIQNAGTEVVEAKAGGGSATLSMGQAAARFGLSLVRALQGEQGVVECAYVEGDGQYARFFSQPLLLGKNGVEERKSIGTLSAFEQNALEGMLDTLKKDIALGEEFVNK
B4: the “Max. specific activity, Natural substrate” value in series [3] (natural substrate (L)-malate, Table 2) is 52.5 µmol/mg/min. Moreover, the “DHB dehydrogenase activity (in words)” value in series [4] (cytosolic wild-type enzymes) is reported as “no measurable DHB dehydrogenase activity”. In addition, the “Max. specific activity, DHB” value in series [4] (when not saturated, activity estimated at 50 mM substrate, Table 2) was 0 µmol/mg/min.

B5: Ec-MdhR81A D86S: E. coli malate dehydrogenase mutant R81A D86S, SEQ ID No. 170 (protein, listed as Escherichia coli)
chain: B4 chain with R81A, D86S
As for B5, the “Max. specific activity, malate” value in series [3] (Table 4) came out at 0.42 µmol/mg/min. In addition, in series [4] (setting [7]), the “Max. specific activity, DHB” value turned out to be 0.79 µmol/mg/min.

B6: Ec-MdhR81A M85Q I12V: E. coli malate dehydrogenase mutant R81A M85Q I12V, SEQ ID No. 164 (protein, listed as Escherichia coli)
chain: B4 chain with I12V, R81A, M85Q
As to B6, in series [3] (Table 4), the “Max. specific activity, malate” value was determined as 0.98 µmol/mg/min. In addition, the “Max. specific activity, DHB” value in series [4] (setting [7]) is 7.1 µmol/mg/min.

B7: Ec-MdhR81A M85Q: E. coli malate dehydrogenase mutant R81A M85Q, SEQ ID No. 158 (protein, listed as Escherichia coli)
chain: B4 chain with R81A, M85Q
On to B7, for which, in series [3] (Table 4), the “Max. specific activity, malate” value came to 0.57 µmol/mg/min. Also, the “Max. specific activity, DHB” value in series [4] (setting [7]) came to 2.98 µmol/mg/min.

B8: Ec-MdhR81A: E. coli malate dehydrogenase mutant R81A, SEQ ID No. 156 (protein, listed as Escherichia coli)
chain: B4 chain with R81A
Turning to B8, the “Max. specific activity, malate” value in series [3] (Table 4) was determined as 0.12 µmol/mg/min. Moreover, the “Max. specific activity, DHB” value in series [4] (setting [7]) is 0.3 µmol/mg/min.

B9: Ec-MdhR81A M85E I12V: E. coli malate dehydrogenase mutant R81A M85E I12V, SEQ ID No. 166 (protein, listed as Escherichia coli)
chain: B4 chain with I12V, R81A, M85E
As to B9, the “Max. specific activity, malate” value in series [3] (Table 4) turned out to be 0.91 µmol/mg/min. The “Max. specific activity, DHB” value in series [4] (setting [7]) amounted to 10.3 µmol/mg/min.

B10: Ec-MdhR81A I12V: E. coli malate dehydrogenase mutant R81A I12V, SEQ ID No. 162 (protein, listed as Escherichia coli)
chain: B4 chain with I12V, R81A
For the molecule B10, the “Max. specific activity, malate” value in series [3] (Table 4) was found to be 0.66 µmol/mg/min. In series [4] (setting [7]), the “Max. specific activity, DHB” value is 2.5 µmol/mg/min.

B11: Ec-MdhR81A G179D: E. coli malate dehydrogenase mutant R81A G179D, SEQ ID No. 168 (protein, listed as Escherichia coli)
chain: B4 chain with R81A, G179D
For B11, in series [3] (Table 4), the “Max. specific activity, malate” value came to 0.52 µmol/mg/min. In addition, in series [4] (setting [7]), the “Max. specific activity, DHB” value is 2.1 µmol/mg/min.

B12: Ec-MdhR81A M85E: E. coli malate dehydrogenase mutant R81A M85E, SEQ ID No 160 (protein, listed as Escherichia coli)
chain: B4 chain with R81A, M85E
Turning to B12, in series [3] (Table 4), the “Max. specific activity, malate” value amounted to 0.65 µmol/mg/min. Moreover, in series [4] (setting [7]), the “Max. specific activity, DHB” value is 2.38 µmol/mg/min.

B13: Ec-MdhR81A D865 G179D: E. coli malate dehydrogenase mutant R81A D86S G179D (printed D865), SEQ ID No 172 (protein, listed as Escherichia coli)
chain: B4 chain with R81A, D86S, G179D
Usually Km stands for the concentration of substrate that gives half-maximal velocity. Consider B13, for which, in series [3] (Table 4), the “Max. specific activity, malate” value was determined as 0.64 µmol/mg/min. Further, the Km in series [3] (read-out: Km, malate, Table 4) worked out at 4 mM; in series [4] (ns = not saturated at concentrations of up to 100 mM, Table 4) it was 25 mM. The “Max. specific activity, DHB” value in series [4] (setting [7]) was 2.51 µmol/mg/min.

B14: Bs-MdhR87C: B. subtilis malate dehydrogenase mutant R87C, SEQ ID No. 154 (protein, listed as Bacillus subtilis)
chain: MGNTRKKVSVIGAGFTGATTAFLIAQKELADVVLVDIPQLENPTKGKALDMLEASPVQGFDAKITGTSNYEDTAGSDIVVITAGIACKPGMSRDDLVSTNEKIMRSVTQEIVKYSPDSIIVVLTNPVDAMTYAVYKESGFPKERVIGQSGVLDTARFRTFVAEELNLSVKDVTGFVLGGHGDDMVPLVRYSYAGGIPLETLIPKERIDAIVERTRKGGGEIVNLLGNGSAYYAPAASLTEMVEAILKDQRRVLPTIAYLEGEYGYEGIYLGVPTIVGGNGLEQIIELELTDYERAQLNKSVESVKNVMKVLS
Regarding B14, the “Max. specific activity, malate” value in series [3] (Table 4) was found to be 0.13 µmol/mg/min. In series [3] (text of Example 2), this molecule yielded an activity on malate of 0.13 µmol/mg/min. For the same molecule, in series [4] (setting [7]), the “Max. specific activity, DHB” value stood at 0.06 µmol/mg/min. The “maximum activity on DHB” value in series [4] (text of Example 2) stood at 0.06 µmol/mg/min.
